Tests used:
[1] = biological target: T1, human RAMP2 co-expressed with human CRLR on CHO-K1 cells (hCR2-CHOK1) (human, UniProt O60895 43-175; Q16602 23-461); test: Cell ELISA on fixed hCR2-CHOK1 cells, 1/10 serial dilution from 67 nM, anti-human IgG Fc-HRP, GraphPad Prism 7
T1 construct: whole, on cells; The antibodies are directed to RAMP2; also called hCRLR / hRAMP2-expressing CHO-K1 cells; membrane surface RAMP2 protein

[2] = biological target: T1, human RAMP2 co-expressed with human …; test: cell-based or functional assay
[3] = biological target: RAMP2 expressed on the cell surface of HUVEC (human umbilical vein endothelial cells) (human, UniProt O60895 43-175); test: cell-based or functional assay
RAMP2 expressed on the cell surface of HUVEC (human umbilical vein endothelial cells), sequence (O60895 43-175): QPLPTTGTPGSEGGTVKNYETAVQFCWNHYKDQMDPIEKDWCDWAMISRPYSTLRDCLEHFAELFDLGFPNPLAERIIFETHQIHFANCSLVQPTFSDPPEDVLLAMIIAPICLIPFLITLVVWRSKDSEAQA

[4] = biological target: T1, human RAMP2 co-expressed with human …; test: Cell ELISA on fixed hCR2-CHOK1 cells, 1/2 serial dilution from 67.5 nM, GraphPad Prism 7
[5] = biological target: RAMP2 expressed on the cell surface of HUVEC (human umbilical vein endothelial cells) (human) (UniProt O60895); test: cell-based or functional assay
RAMP2 expressed on the cell surface of HUVEC (human umbilical vein endothelial cells) (human), sequence (O60895 43-175): as above

T1 sequence (O60895 43-175, chain 1 of 2): as the sequence (O60895 43-175) above
T1 sequence (Q16602 23-461, chain 2 of 2): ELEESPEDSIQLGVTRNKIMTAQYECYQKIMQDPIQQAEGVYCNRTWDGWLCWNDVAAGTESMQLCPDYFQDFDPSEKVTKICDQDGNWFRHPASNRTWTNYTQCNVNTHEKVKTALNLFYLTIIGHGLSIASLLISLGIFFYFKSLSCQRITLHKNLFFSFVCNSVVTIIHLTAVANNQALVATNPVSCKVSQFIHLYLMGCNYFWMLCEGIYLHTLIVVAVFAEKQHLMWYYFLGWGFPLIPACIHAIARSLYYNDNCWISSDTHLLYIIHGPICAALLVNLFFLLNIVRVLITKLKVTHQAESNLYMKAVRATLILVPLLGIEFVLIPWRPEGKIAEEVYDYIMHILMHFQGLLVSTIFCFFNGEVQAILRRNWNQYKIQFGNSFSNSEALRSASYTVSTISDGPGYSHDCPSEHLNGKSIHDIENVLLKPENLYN

| Binder | EC50 [1] [nM] | IC50 values for cAMP inhibition [2] [nM] | HUVEC growth inhibition rate (IC50) [3] [nM] | EC50 [4] [nM] | HUVEC proliferation upon AM addition, 10 nM antibody (OD450, % of no antibody) [5] [%] | IC50 values for inhibition of HUVEC proliferation [5] [nM] |
| --- | --- | --- | --- | --- | --- | --- |
| h85H7-2B11v3 (antibody, V domains shown) VH: QVQLVQSGAEVKKPGASVKMSCKASGYSFSGYFMNWVKQAPGQGLEWIGRINPYNGDTFYNQKFKGRATLTVDTSTSTTYMELSSLRSEDTALYYCARLGIYDVYHYVMENWGQGTTVTVSS VL: DIQMTQSPSSLSASVGDRVTITCRASQDIRNYLNWYQQKPGKAVKLLIYYTSRLHSGVPSRFSGSGSGTDYTLTISSLQPEDIATYFCQQDSKNPWTFGQGTKLEIK | 0.23 | 0.08 | 1.5 | – | – | – |
| h25H4-4F9v6 (antibody, V domains shown) VH: EVQLVQSGAEVKKPGATVKISCKVSGYTFTGYFMNWVQQAPGKGLESMGRNNPYNGDSIYAEKFQGRVTITADTSTDTAYMELSSLRSEDTAVYYCARLMIFDAYYAMDYWGQGTTVTVSS VL: DIQMTQSPSSLSASVGDRVTITCQASQDIRNYLNWYQQKPGKAVKLLIYYTSRLHSGVPSRFSGSGSGTDFTFTISSLQPEDIATYYCQQDSKHPWTFGQGTKLEIK | 3.19 | 1.35 | – | – | – | – |
| h25H4-4F9v5 (antibody, V domains shown) VH: EVQLVQSGAEVKKPGATVKISCKVSGYSFTGYFMNWVQQAPGKGLESIGRNNPYNGDSIYNEKFQGRVTITADTSTDTAYMELSSLRSEDTAVYYCARLMIFDAYYAMDYWGQGTTVTVSS VL: DIQMTQSPSSLSASVGDRVTITCQASQDIRNYLNWYQQKPGKAVKLLIYYTSRLHSGVPSRFSGSGSGTDFTFTISSLQPEDIATYYCQQDSKHPWTFGQGTKLEIK | 2.32 | 0.5 | – | – | – | – |
| h25H4-4F9v4 (antibody, V domains shown) VH: EVQLVQSGAEVKKPGATVKISCKVSGYSFTGYFMNWVQQAPGKGLESIGRNNPYNGDSIYNEKFQGRVTITADTSTDTAYMELSSLRSEDTAVYYCARLMIFDAYYAMDYWGQGTTVTVSS VL: DIQMTQSPSSLSASVGDRVTITCRASQDIRNYLNWYQQKPGKAVKLLIYYTSRLHSGVPSRFSGSGSGTDYTLTISSLQPEDIATYFCQQDSKHPWTFGQGTKLEIK | 1.83 | 0.17 | – | – | – | – |
| 25H4-4F9 antibody (antibody, V domains shown) VH: EVQLQQSGPELVKPGASVKISCKASGYSFTGYFMNWVKQSQGKSLESIGRNNPYNGDSIYNQKFKGKATLTVDKSSNTAHMELRSLTSEDSAVYYCARLMIFDAYYAMDYWGQGTSVTVSS VL: DIQMTQTTSSLSASLGDRVTISCRASQDIRNYLNWYQQKPDGTVKLLIYYTSRLHSGVPSRFSGSGSGTDYSLTISNLEQEDIATYFCQQDSKHPWTFGGGTKLEIK | – | 0.15 | – | 0.4 | 30 | 1.2 |
| 85H7-2B11 antibody (antibody, V domains shown) VH: EVQLQQSGPELVKPGASVKMSCKASGYSFSGYFMNWVKQSHGKSLEWIGRINPYNGDTFYNQKFKGKATLTVDKSSSTTHMELRSLTSEDSALYYCARLGIYDVYHYVMENWGQGTSVTVSS VL: DIQMTQTTSSLSASLGDRVTISCRASQDIRNYLNWYQQKPDGTVKLLIYYTSRLHSGVPSRFSGSGSGTDYSLTISNLEQEDIATYFCQQDSKNPWTFGGGTKLEIK | – | 0.03 | – | 0.14 | 30 | 0.8 |
| h85H7-2B11v2 (antibody, V domains shown) VH: QVQLVQSGAEVKKPGASVKMSCKASGYSFSGYFMNWVKQAPGQGLEWIGRINPYNGDTFYNQKFKGRATLTVDTSTSTTYMELSSLRSEDTALYYCARLGIYDVYHYVMENWGQGTTVTVSS VL: DIQMTQSTSSLSASLGDRVTITCRASQDIRNYLNWYQQKPGKTVKLLIYYTSRLHSGVPSRFSGSGSGTDYTLTISSLQQEDIATYFCQQDSKNPWTFGQGTKLEIK | 0.24 | 0.11 | 9.5 | – | – | – |
| h25H4-4F9v1 (antibody, V domains shown) VH: EVQLVQSGPEVVKPGATVKISCKASGYSFTGYFMNWVKQAQGKSLESIGRNNPYNGDSIYNQKFKGKATLTVDKSTNTAYMELSSLRSEDTAVYYCARLMIFDAYYAMDYWGQGTTVTVSS VL: DIQMTQSTSSLSASLGDRVTITCRASQDIRNYLNWYQQKPGKTVKLLIYYTSRLHSGVPSRFSGSGSGTDYTLTISSLQQEDIATYFCQQDSKHPWTFGQGTKLEIK | 0.73 | 0.17 | 16 | – | – | – |

Now from value to binder:

| EC50 [1] [nM] | IC50 values for cAMP inhibition [2] [nM] | HUVEC growth inhibition rate (IC50) [3] [nM] | EC50 [4] [nM] | HUVEC proliferation upon AM addition, 10 nM antibody (OD450, % of no antibody) [5] [%] | IC50 values for inhibition of HUVEC proliferation [5] [nM] | Binder |
| --- | --- | --- | --- | --- | --- | --- |
| 0.83 | 0.26 | – | – | – | – | h25H4-4F9v3 (antibody, V domains shown) VH: EVQLVQSGAEVKKPGATVKISCKASGYSFTGYFMNWVKQAPGKGLESIGRNNPYNGDSIYNQKFKGRATLTVDTSTDTAYMELSSLRSEDTAVYYCARLMIFDAYYAMDYWGQGTTVTVSS VL: DIQMTQSPSSLSASVGDRVTITCRASQDIRNYLNWYQQKPGKAVKLLIYYTSRLHSGVPSRFSGSGSGTDYTLTISSLQPEDIATYFCQQDSKHPWTFGQGTKLEIK |
| 3.03 | 1.07 | – | – | – | – | h25H4-4F9v8 (antibody, V domains shown) VH: EVQLVQSGAEVKKPGATVKISCKVSGYTFTGYFMNWVQQAPGKGLEWMGRNNPYNGDSIYAEKFQGRVTITADTSTDTAYMELSSLRSEDTAVYYCARLMIFDAYYAMDYWGQGTTVTVSS VL: DIQMTQSPSSLSASVGDRVTITCQASQDIRNYLNWYQQKPGKAPKLLIYYTSRLETGVPSRFSGSGSGTDFTFTISSLQPEDIATYYCQQDSKHPWTFGQGTKLEIK |
| 0.18 | 0.07 | 5.1 | – | – | – | h85H7-2B11v1 (antibody, V domains shown) VH: EVQLVQSGPEVVKPGASVKMSCKASGYSFSGYFMNWVKQAHGQSLEWIGRINPYNGDTFYNQKFKGKATLTVDKSTSTTYMELSSLRSEDTALYYCARLGIYDVYHYVMENWGQGTTVTVSS VL: DIQMTQSTSSLSASLGDRVTITCRASQDIRNYLNWYQQKPGKTVKLLIYYTSRLHSGVPSRFSGSGSGTDYTLTISSLQQEDIATYFCQQDSKNPWTFGQGTKLEIK |
| – | 0.045 | – | 0.3 | 30 | 1.6 | 33H4-1G3 antibody (antibody, V domains shown) VH: EVQLQQSGPELVKPGASVKMSCKASGYSFSGYFMNWVKQSHGKSLEWIGRINPYNGDTLYNQKFKGKATLTVDKSSNTIYMELRSLTSEDSALYYCARLGIYDVYHYVMENWGQGTSVTVSS VL: DIQMTQTTSSLSASLGDRVTISCRASQDIRNYLNWYQQKPDGTVKLLIYYTSRLHSGVPSRFSGSGSGTDYSLTISNLEQEDIATYFCQQDSKNPWTFGGGTKLEIK |
| 1.05 | 0.14 | 10.9 | – | – | – | h25H4-4F9v2 (antibody, V domains shown) VH: EVQLVQSGAEVKKPGATVKISCKASGYSFTGYFMNWVKQAPGKGLESIGRNNPYNGDSIYNQKFKGRATLTVDTSTDTAYMELSSLRSEDTAVYYCARLMIFDAYYAMDYWGQGTTVTVSS VL: DIQMTQSTSSLSASLGDRVTITCRASQDIRNYLNWYQQKPGKTVKLLIYYTSRLHSGVPSRFSGSGSGTDYTLTISSLQQEDIATYFCQQDSKHPWTFGQGTKLEIK |

Source: patent WO2019054460A1 (dated 2019)
